Experimental data published in article PMC7164391 (Science (New York, N.Y.), 2020).

Target: receptor-binding domain (RBD) of the SARS-CoV spike (S) protein (SARS-CoV, isolate of GenBank ABF65836.1 …, UniProt Q19QX0)
Details: both partners purified

B1: CR3022 Fab (Fab, V domains shown)
VH: QMQLVQSGTEVKKPGESLKISCKGSGYGFITYWIGWVRQMPGKGLEWMGIIYPGDSETRYSPSFQGQVTISADKSINTAYLQWSSLKASDTAIYYCAGGSGISTPMDVWGQGTTVTVSS
VL: not shown
  Kd: 1 ± 0.1 nM
